Assay results as given in patent publication US20020098189A1 (AstraZeneca / MedImmune, published 2002).

B1: Clone 24 (IgG) (antibody, V domains shown)
VH: QVTLRESGPALVKPTQTLTLTCTFSGFSLSTAGMSVGWIRQPPGKALEWLADIWWDGKKHYNPSLKDRLTISKDTSKNQVVLKVTNMDPADTATYYCARDMIFNWYFDVWGQGTTVTVSS
VL: DIQMTQSPSTLSASVGDRVTITCSLSSRVGYMHWYQQKPGKAPKLLIYDTFKLSSGVPSRFSGSGSGTEFTLTISSLQPDDFATYYCFQGSGYPFTFGGGTKVEIKR
B2: Clone 23 (IgG) (antibody, V domains shown)
VH: QVTLRESGPALVKPTQTLTLTCTFSGFSLSTPGMSVGWIRQPPGKALEWLADIWWDGKKHYNPSLKDRLTISKDTSKNQVVLKVTNMDPADTATYYCARDMIFNWYFDVWGQGTTVTVSS
VL: DIQMTQSPSTLSASVGDRVTITCSPSSRVGYMHWYQQKPGKAPKLLIYDTMRLASGVPSRFSGSGSGTEFTLTISSLQPDDFATYYCFQGSGYPFTFGGGTKVEIKR
B3: Clone 29 (Fab) (Fab, V domains shown)
VH: QVTLRESGPALVKPTQTLTLTCTFSGFSLSTAGMSVGWIRQPPGKALEWLADIWWDDKKHYNPSLKDRLTISKDTSKNQVVLKVTNMDPADTATYYCARDMIFNFYFDVWGQGTTVTVSS
VL: DIQMTQSPSTLSASVGDRVTITCSASSRVGYMHWYQQKPGKAPKLLIYDTFFLDSGVPSRFSGSGSGTEFTLTISSLQPDDFATYYCFQGSGYPFTFGGGTKVEIK
B4: Clone 22 (IgG) (antibody, V domains shown)
VH: QVTLRESGPALVKPTQTLTLTCTFSGFSLSTPGMSVGWIRQPPGKALEWLADIWWDDKKHYNPSLKDRLTISKDTSKNQVVLKVTNMDPADTATYYCARDMIFNFYFDVWGQGTTVTVSS
VL: DIQMTQSPSTLSASVGDRVTITCSLSSRVGYMHWYQQKPGKAPKLLIYDTRGLPSGVPSRFSGSGSGTEFTLTISSLQPDDFATYYCFQGSGYPFTFGGGTKVEIKR
B5: Clone 28 (Fab) (Fab, V domains shown)
VH: QVTLRESGPALVKPTQTLTLTCTFSGFSLSTAGMSVGWIRQPPGKALEWLADIWWDDKKSYNPSLKDRLTISKDTSKNQVVLKVTNMDPADTATYYCARDMIFNWYFDVWGQGTTVTVSS
VL: DIQMTQSPSTLSASVGDRVTITCSPSSRVGYMHWYQQKPGKAPKLLIYDTRYQSSGVPSRFSGSGSGTEFTLTISSLQPDDFATYYCFQGSGYPFTFGGGTKVEIK
B6: Clone 19 (IgG) (antibody, V domains shown)
VH: QVTLRESGPALVKPTQTLTLTCTFSGFSLSTAGMSVGWIRQPPGKALEWLADIWWDDKKHYNPSLKDRLTISKDTSKNQVVLKVTNMDPADTATYYCARDMIFNFYFDVWGQGTTVTVSS
VL: DIQMTQSPSTLSASVGDRVTITCSASSRVGYMHWYQQKPGKAPKLLIYDTFFLDSGVPSRFSGSGSGTEFTLTISSLQPDDFATYYCFQGSGYPFTFGGGTKVEIKR
B7: Clone 26 (IgG) (antibody, V domains shown)
VH: QVTLRESGPALVKPTQTLTLTCTFSGFSLSTAGMSVGWIRQPPGKALEWLADIWWDGKKSYNPSLKDRLTISKDTSKNQVVLKVTNMDPADTATYYCARDMIFNFYFDVWGQGTTVTVSS
VL: DIQMTQSPSTLSASVGDRVTITCSLSSRVGYMHWYQQKPGKAPKLLIYDTMYQSSGVPSRFSGSGSGTEFTLTISSLQPDDFATYYCFQGSGYPFTFGGGTKVEIKR
B8: Reference clone (Fab fragment with the sequences of FIG. 2 and the CDRs of Table 1) (Fab, V domains shown)
VH: QVTLRESGPALVKPTQTLTLTCTFSGFSLSTSGMSVGWIRQPPGKALEWLADIWWDDKKDYNPSLKSRLTISKDTSKNQVVLKVTNMDPADTATYYCARSMITNWYFDVWGQGTTVTVSS
VL: DIQMTQSPSTLSASVGDRVTITCSASSSVGYMHWYQQKPGKAPKLLIYDTSKLASGVPSRFSGSGSGTEFTLTISSLQPDDFATYYCFQGSGYPFTFGGGTKVEIK
notes: also called basic structure
B9: Clone 27 (Fab) (Fab, V domains shown)
VH: QVTLRESGPALVKPTQTLTLTCTFSGFSLSTAGMSVGWIRQPPGKALEWLADIWWDGKKSYNPSLKSRLTISKDTSKNQVVLKVTNMDPADTATYYCARDMIFNFYFDVWGQGTTVTVSS
VL: DIQMTQSPSTLSASVGDRVTITCLPSSRVGYMHWYQQKPGKAPKLLIYDTMYQSSGVPSRFSGSGSGTEFTLTISSLQPDDFATYYCFQGSGYPFTFGGGTKVEIK
B10: Clone 18 (IgG) (antibody, V domains shown)
VH: QVTLRESGPALVKPTQTLTLTCTFSGFSLSTAGMSVGWIRQPPGKALEWLADIWWDGKKSYNPSLKDRLTISKDTSKNQVVLKVTNMDPADTATYYCARDMIFNFYFDVWGQGTTVTVSS
VL: DIQMTQSPSTLSASVGDRVTITCLPSSRVGYMHWYQQKPGKAPKLLIYDTMYQSSGVPSRFSGSGSGTEFTLTISSLQPDDFATYYCFQGSGYPFTFGGGTKVEIKR
B11: Clone 20 (IgG) (antibody, V domains shown)
VH: QVTLRESGPALVKPTQTLTLTCTFSGFSLSTAGMSVGWIRQPPGKALEWLADIWWDDKKSYNPSLKDRLTISKDTSKNQVVLKVTNMDPADTATYYCARDMIFNWYFDVWGQGTTVTVSS
VL: DIQMTQSPSTLSASVGDRVTITCSPSSRVGYMHWYQQKPGKAPKLLIYDTRYQSSGVPSRFSGSGSGTEFTLTISSLQPDDFATYYCFQGSGYPFTFGGGTKVEIKR
B12: Clone 21 (IgG) (antibody, V domains shown)
VH: QVTLRESGPALVKPTQTLTLTCTFSGFSLSTPGMSVGWIRQPPGKALEWLADIWWDDKKHYNPSLKDRLTISKDTSKNQVVLKVTNMDPADTATYYCARDMIFNFYFDVWGQGTTVTVSS
VL: DIQMTQSPSTLSASVGDRVTITCSLSSRVGYMHWYQQKPGKAPKLLIYDTFYLSSGVPSRFSGSGSGTEFTLTISSLQPDDFATYYCFQGSGYPFTFGGGTKVEIKR
B13: Clone 25 (IgG) (antibody, V domains shown)
VH: QVTLRESGPALVKPTQTLTLTCTFSGFSLSTAGMSVGWIRQPPGKALEWLADIWWDGKKDYNPSLKDRLTISKDTSKNQVVLKVTNMDPADTATYYCARDMIFNFYFDVWGQGTTVTVSS
VL: DIQMTQSPSTLSASVGDRVTITCSASSRVGYMHWYQQKPGKAPKLLIYDTFKLSSGVPSRFSGSGSGTEFTLTISSLQPDDFATYYCFQGSGYPFTFGGGTKVEIKR
B14: Clone 2 (Fab) (Fab, V domains shown)
VH: QVTLRESGPALVKPTQTLTLTCTFSGFSLSTAGMSVGWIRQPPGKALEWLADIWWDDKKDYNPSLKSRLTISKDTSKNQVVLKVTNMDPADTATYYCARDMIFNWYFDVWGQGTTVTVSS
VL: DIQMTQSPSTLSASVGDRVTITCSASSSVGYMHWYQQKPGKAPKLLIYDTFKLASGVPSRFSGSGSGTEFTLTISSLQPDDFATYYCFQGSGYPFTFGGGTKVEIK
B15: Clone 1 (Fab) (Fab, V domains shown)
VH: QVTLRESGPALVKPTQTLTLTCTFSGFSLSTAGMSVGWIRQPPGKALEWLADIWWDDKKDYNPSLKSRLTISKDTSKNQVVLKVTNMDPADTATYYCARDMITNFYFDVWGQGTTVTVSS
VL: DIQMTQSPSTLSASVGDRVTITCSASSSVGYMHWYQQKPGKAPKLLIYDTFKLTSGVPSRFSGSGSGTEFTLTISSLQPDDFATYYCFQGSGYPFTFGGGTKVEIK
B16: Clone 3 (Fab) (Fab, V domains shown)
VH: QVTLRESGPALVKPTQTLTLTCTFSGFSLSTAGMSVGWIRQPPGKALEWLADIWWDDKKDYNPSLKSRLTISKDTSKNQVVLKVTNMDPADTATYYCARDMIFNWYFDVWGQGTTVTVSS
VL: DIQMTQSPSTLSASVGDRVTITCSASSSVGYMHWYQQKPGKAPKLLIYDTYKQTSGVPSRFSGSGSGTEFTLTISSLQPDDFATYYCFQGSGYPFTFGGGTKVEIK
B17: Clone 5 (Fab) (Fab, V domains shown)
VH: QVTLRESGPALVKPTQTLTLTCTFSGFSLSTAGMSVGWIRQPPGKALEWLADIWWDDKKDYNPSLKSRLTISKDTSKNQVVLKVTNMDPADTATYYCARDMITNFYFDVWGQGTTVTVSS
VL: DIQMTQSPSTLSASVGDRVTITCSASSSVGYMHWYQQKPGKAPKLLIYDTFKLASGVPSRFSGSGSGTEFTLTISSLQPDDFATYYCFQGSGYPFTFGGGTKVEIK
B18: Clone 6 (Fab) (Fab, V domains shown)
VH: QVTLRESGPALVKPTQTLTLTCTFSGFSLSTAGMSVGWIRQPPGKALEWLADIWWDDKKDYNPSLKSRLTISKDTSKNQVVLKVTNMDPADTATYYCARSMITNFYFDVWGQGTTVTVSS
VL: DIQMTQSPSTLSASVGDRVTITCSASSSVGYMHWYQQKPGKAPKLLIYDTFKLASGVPSRFSGSGSGTEFTLTISSLQPDDFATYYCFQGSFYPFTFGGGTKVEIK
B19: Clone 4 (Fab) (Fab, V domains shown)
VH: QVTLRESGPALVKPTQTLTLTCTFSGFSLSTAGMSVGWIRQPPGKALEWLADIWWDDKKDYNPSLKSRLTISKDTSKNQVVLKVTNMDPADTATYYCARDMIFNWYFDVWGQGTTVTVSS
VL: DIQMTQSPSTLSASVGDRVTITCSASSSVGYMHWYQQKPGKAPKLLIYDTRYLSSGVPSRFSGSGSGTEFTLTISSLQPDDFATYYCFQGSGYPFTFGGGTKVEIK
notes: also called H3-3F4

How the values were obtained:
[1] = substrate: F protein of respiratory syncytial virus (RSV-Long strain), on infectious virus (respiratory syncytial virus (RSV-Long strain)) (UniProt P12568); experiment: cell-based or functional assay
[2] = biological target: T1, C-terminal truncated RSV F protein, secreted from recombinant baculovirus-infected cells (respiratory syncytial virus (strain not …, UniProt P03420 26-526)); experiment: SPR (BIAcore), F protein immobilized, Fab injected
T1 construct: also called F antigen of RSV
Description: A typical kinetic study involved the injection of 35 ml of Mab at varying concentrations (25-300 nM) in PBS buffer containing 0.05% Tween-20 (PBS/Tween). The flow rate was maintained at 5 ml/min, giving a 7 min binding phase. Following the injection of Mab, the flow was exchanged with PBS/Tween buffer for 30 min for determining the rate of dissociation. The sensor chip was regenerated between cycles with a 2 min pulse of 10 mM HCI.
More specifically, for measurement of kassoc (or kₒₙ), F protein was directly immobilized by the EDC/NHS method (EDC=N-ethyl-N′-[3-diethylaminopropyl)-carbodiimide). Briefly, 4 μg/ml of F protein in 10 mM NaOAc, pH 4.0 was prepared and about a 30 μl injection gives about 500 RU (response units) of immobilized F protein under the above referenced conditions. The blank flow cell (VnR immobilized-CM dextran surface) was subtracted for kinetic analysis. The column could be regenerated using 100 mM HCI (with 72 seconds of contact time being required for full regeneration). […] The dissociation phase was analyzed from 230 seconds (30 seconds after start of the dissociation phase) to 900 seconds. Kinetics were analyzed by 1:1 Langmuir fitting (global fitting). Measurements were done in HBS-EP buffer (10 mM HEPES, pH 7.4, 150 mM NaCl, 3 mM EDTA, 0.005% (v/v) Surfactant P20.
For measuring k_{off (or k}dissoc) the following conditions were employed. Briefly, 4100 RU of F protein were immobilized (as above) with CM-dextran used as the blank. Here, 3000 RU of Fab was bound (with dissociated Fab high enough to offset machine fluctuation). […] The dissociation phase was 6-15 hours at a flow rate of 5 μl/min.

[3] = biological target: F protein of respiratory syncytial virus (RSV-Long strain), on infectious virus (respiratory syncytial virus (RSV-Long …, UniProt P12568 26-574)); experiment: cell-based or functional assay

T1 sequence (P03420 26-526): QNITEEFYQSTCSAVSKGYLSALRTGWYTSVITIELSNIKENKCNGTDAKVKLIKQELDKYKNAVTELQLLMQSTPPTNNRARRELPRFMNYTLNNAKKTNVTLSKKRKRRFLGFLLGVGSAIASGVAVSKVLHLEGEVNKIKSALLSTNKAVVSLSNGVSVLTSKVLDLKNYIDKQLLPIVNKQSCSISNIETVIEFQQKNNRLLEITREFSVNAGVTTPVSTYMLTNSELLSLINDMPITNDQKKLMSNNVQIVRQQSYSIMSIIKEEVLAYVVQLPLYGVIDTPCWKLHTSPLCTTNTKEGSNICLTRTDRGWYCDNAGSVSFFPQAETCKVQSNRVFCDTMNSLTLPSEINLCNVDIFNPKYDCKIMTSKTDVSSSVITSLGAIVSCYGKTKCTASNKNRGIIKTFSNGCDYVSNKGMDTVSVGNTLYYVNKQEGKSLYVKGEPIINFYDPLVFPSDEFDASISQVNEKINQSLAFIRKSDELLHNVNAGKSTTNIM
Chain of F protein of respiratory syncytial virus (RSV-Long strain), on infectious virus (respiratory syncytial virus (RSV-Long strain)) (P12568 26-574): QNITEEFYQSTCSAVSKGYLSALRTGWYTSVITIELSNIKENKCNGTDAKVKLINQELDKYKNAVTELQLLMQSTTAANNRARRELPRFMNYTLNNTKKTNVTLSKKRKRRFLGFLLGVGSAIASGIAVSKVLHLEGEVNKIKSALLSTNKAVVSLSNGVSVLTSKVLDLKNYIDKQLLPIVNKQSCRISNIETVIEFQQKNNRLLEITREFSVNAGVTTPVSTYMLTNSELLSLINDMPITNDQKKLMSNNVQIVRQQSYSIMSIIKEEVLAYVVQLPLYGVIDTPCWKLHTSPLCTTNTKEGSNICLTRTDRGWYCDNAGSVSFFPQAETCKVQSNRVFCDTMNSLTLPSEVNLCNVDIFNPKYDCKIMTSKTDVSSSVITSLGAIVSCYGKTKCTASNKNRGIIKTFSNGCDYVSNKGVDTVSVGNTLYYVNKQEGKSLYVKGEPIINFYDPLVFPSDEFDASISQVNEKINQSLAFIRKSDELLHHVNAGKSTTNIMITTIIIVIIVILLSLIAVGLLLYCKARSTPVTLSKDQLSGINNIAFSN

Row | Binder | Mean IC50 µg/ml, RSV microneutralization [1] | Mean IC50 (Control) µg/ml, RSV microneutralization [1] | koff [2] | kon [2] | EC50 (nM), RSV microneutralization [3]
1 | B1 | 0.0625 µg/mL | 0.0645 µg/mL | – | – | –
2 | B2 | 0.0217 µg/mL | 0.0289 µg/mL | – | – | –
3 | B3 | 0.0414 µg/mL | 0.0411 µg/mL | – | – | –
4 | B4 | 0.0242 µg/mL | 0.0235 µg/mL | – | – | –
5 | B5 | 0.177 µg/mL | 0.157 µg/mL | – | – | –
6 | B6 | 0.0171 µg/mL | 0.0154 µg/mL | – | – | –
7 | B7 | 0.0376 µg/mL | 0.0375 µg/mL | – | – | –
8 | B8 | – | – | 0.00065 s⁻¹ | 185000 M⁻¹ s⁻¹ | 3.52 nM
9 | B9 | 0.0179 µg/mL | 0.0171 µg/mL | – | – | –
10 | B10 | 0.0342 µg/mL | 0.0354 µg/mL | – | – | –
11 | B11 | 0.0337 µg/mL | 0.0383 µg/mL | – | – | –
12 | B12 | 0.0231 µg/mL | 0.0223 µg/mL | – | – | –
13 | B13 | 0.0357 µg/mL | 0.0354 µg/mL | – | – | –
14 | B14 | – | – | 0.000422 s⁻¹ | 531000 M⁻¹ s⁻¹ | 5.05 nM
15 | B15 | – | – | 0.000326 s⁻¹ | 365000 M⁻¹ s⁻¹ | 2.26 nM
16 | B16 | – | – | 0.000422 s⁻¹ | 605000 M⁻¹ s⁻¹ | 4.7 nM
17 | B17 | – | – | 0.000306 s⁻¹ | 416000 M⁻¹ s⁻¹ | 2.61 nM
18 | B18 | – | – | 0.00032 s⁻¹ | 185000 M⁻¹ s⁻¹ | 2.88 nM
19 | B19 | – | – | 0.000462 s⁻¹ | 757000 M⁻¹ s⁻¹ | 3.55 nM
